According to patent US20190315842A1 (DUKE UNIVERSITY, published 2019):

T1: 15-mer peptide GPPPPIDNGDITSFP (SEQ ID NO: 114) (human)
T1 construct: Immobilized for SPR; also called parent peptide
T1 peptide: GPPPPIDNGDITSFP

T2: centromere B (CentB) (UniProt P07199 2-599)
T2 sequence (looked up): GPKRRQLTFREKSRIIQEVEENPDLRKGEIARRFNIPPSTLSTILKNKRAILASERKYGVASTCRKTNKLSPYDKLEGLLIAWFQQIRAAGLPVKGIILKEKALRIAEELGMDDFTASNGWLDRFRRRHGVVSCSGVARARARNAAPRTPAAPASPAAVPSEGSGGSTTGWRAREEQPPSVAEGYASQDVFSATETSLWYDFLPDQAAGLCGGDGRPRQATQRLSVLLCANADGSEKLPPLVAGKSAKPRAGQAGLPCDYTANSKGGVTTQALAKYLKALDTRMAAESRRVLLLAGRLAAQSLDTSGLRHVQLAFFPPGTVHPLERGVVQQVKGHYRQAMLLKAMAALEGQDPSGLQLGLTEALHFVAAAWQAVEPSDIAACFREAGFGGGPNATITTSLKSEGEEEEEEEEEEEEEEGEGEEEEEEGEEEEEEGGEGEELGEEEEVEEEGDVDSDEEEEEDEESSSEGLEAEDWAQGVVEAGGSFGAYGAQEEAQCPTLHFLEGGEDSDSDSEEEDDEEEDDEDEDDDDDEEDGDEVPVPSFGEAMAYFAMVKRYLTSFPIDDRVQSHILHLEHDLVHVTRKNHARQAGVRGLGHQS

T3: histidine-tRNA ligase (Jo-1) (UniProt P12081 2-509)
T3 sequence (looked up): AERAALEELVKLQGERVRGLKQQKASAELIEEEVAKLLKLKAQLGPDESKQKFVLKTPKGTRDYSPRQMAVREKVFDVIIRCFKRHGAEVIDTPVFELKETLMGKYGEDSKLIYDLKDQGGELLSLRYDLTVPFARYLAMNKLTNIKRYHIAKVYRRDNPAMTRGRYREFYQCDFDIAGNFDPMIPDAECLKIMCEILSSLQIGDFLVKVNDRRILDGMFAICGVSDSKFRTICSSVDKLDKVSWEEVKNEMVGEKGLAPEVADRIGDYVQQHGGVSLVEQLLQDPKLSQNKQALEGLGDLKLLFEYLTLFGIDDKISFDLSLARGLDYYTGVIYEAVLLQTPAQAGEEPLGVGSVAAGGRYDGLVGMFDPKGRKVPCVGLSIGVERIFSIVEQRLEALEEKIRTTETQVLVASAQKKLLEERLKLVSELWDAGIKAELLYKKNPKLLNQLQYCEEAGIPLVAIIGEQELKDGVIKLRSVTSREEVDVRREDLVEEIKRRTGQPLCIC

T4: sclerosis autoantigen (Scl-70) (UniProt P11387 2-765, limits assumed)
T4 sequence (looked up): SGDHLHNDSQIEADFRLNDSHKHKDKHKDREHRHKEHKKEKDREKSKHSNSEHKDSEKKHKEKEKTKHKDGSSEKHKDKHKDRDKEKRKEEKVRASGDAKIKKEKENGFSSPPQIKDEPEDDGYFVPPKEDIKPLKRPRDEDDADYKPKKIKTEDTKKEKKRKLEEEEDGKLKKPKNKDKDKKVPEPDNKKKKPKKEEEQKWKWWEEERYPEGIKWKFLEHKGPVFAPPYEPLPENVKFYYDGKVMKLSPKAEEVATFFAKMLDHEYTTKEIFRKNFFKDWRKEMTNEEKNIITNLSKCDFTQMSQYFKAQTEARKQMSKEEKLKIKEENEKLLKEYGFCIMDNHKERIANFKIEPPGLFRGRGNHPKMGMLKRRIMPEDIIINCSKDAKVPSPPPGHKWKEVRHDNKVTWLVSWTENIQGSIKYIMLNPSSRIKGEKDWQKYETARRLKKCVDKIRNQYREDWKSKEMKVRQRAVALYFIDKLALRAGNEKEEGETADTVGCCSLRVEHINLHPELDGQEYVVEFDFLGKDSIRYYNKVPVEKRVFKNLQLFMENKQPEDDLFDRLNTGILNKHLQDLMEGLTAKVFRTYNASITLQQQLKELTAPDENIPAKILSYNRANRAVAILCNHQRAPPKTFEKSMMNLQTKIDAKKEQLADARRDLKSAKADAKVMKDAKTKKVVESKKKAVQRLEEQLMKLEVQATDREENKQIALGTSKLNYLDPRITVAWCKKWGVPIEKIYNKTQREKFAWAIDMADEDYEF

T5: systemic lupus erythematosus autoantigen SSB (UniProt P05455 1-408, limits assumed)
T5 sequence (looked up): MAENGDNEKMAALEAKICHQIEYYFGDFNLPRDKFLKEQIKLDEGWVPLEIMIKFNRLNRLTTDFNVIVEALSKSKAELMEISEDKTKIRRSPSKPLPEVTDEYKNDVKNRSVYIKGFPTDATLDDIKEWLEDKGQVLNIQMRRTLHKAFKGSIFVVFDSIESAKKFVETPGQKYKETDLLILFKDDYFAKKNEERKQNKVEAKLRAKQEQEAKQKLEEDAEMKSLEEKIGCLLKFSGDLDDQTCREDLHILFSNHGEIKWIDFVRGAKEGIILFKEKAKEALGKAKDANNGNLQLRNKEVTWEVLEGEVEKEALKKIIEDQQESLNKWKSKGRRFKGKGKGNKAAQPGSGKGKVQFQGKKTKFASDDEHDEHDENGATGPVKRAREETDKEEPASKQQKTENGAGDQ


What was measured:
[1] = target: T1, 15-mer peptide GPPPPIDNGDITSFP (SEQ ID …); assay: assay and antigen not given; Example 10, epitope mapping on the 15-mer peptide
centromere B (CentB) [2] = target: T2, centromere B (CentB); assay: AtheNA Multi-Lyte ANA, Ab at 50 ug/ml;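 note: monoclonal antibodies probed against a nuclear autoantigen panel (SSA, SSB, Sm, RNP, Scl-70, Jo-1, dsDNA, CentB, histones), with anti-HIV 4E10 and palivizumab as control antibodies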
centromere B (CentB) [3] = target: T2, centromere B (CentB); assay: AtheNA Multi-Lyte ANA, Ab at 6.25 ug/ml;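 note: monoclonal antibodies screened for reactivity against a panel of nuclear autoantigens, with an anti-HIV and an anti-RSV monoclonal antibody serving as controls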
Experimental: (§1) All 7 mAbs were tested against the AtheNA Multi-Lyte panel of autoantigens. The AtheNA Multi-Lyte ANA test for a panel of nuclear antigens: systemic lupus erythematosus autoantigens SSA and SSB, sphingomyelin (Sm), ribonucleoprotein (RNP), sclerosis autoantigen (Scl-70), histidine-tRNA ligase (Jo-1), double-stranded DNA (dsDNA), centromere B (CentB), and histones. 4e10 (Anti HIV, NIH AIDS Reagent Program) and SYNAGIS® (anti-RSV monoclonal antibody palivizumab; “Synagis”) were used a controls.

ribonucleoprotein (RNP) = assay: AtheNA Multi-Lyte ANA, Ab at 25 ug/ml
Experimental: as §1

[4] = target: T3, histidine-tRNA ligase (Jo-1); assay: AtheNA Multi-Lyte ANA, Ab at 25 ug/ml
Experimental: as §1

[5] = target: T4, sclerosis autoantigen (Scl-70); assay: AtheNA Multi-Lyte ANA, Ab at 25 ug/ml
Experimental: as §1

[6] = target: systemic lupus erythematosus autoantigen SSA; assay: AtheNA Multi-Lyte ANA, Ab at 25 ug/ml
Experimental: as §1

Sm (sphingomyelin) = target: T6, Sm (sphingomyelin); assay: AtheNA Multi-Lyte ANA, Ab at 25 ug/ml
T6 construct: in an ANA panel of nuclear antigens Sm is usually the Smith ribonucleoprotein antigen; Kept, but see recheck
Experimental: as §1

[7] = target: T5, systemic lupus erythematosus …; assay: AtheNA Multi-Lyte ANA, Ab at 12.5 ug/ml;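 note: monoclonal antibodies screened for binding to a panel of nuclear autoantigens (SSA, SSB, Sm, RNP, Scl-70, Jo-1, dsDNA, CentB, histones), with anti-HIV and anti-RSV antibodies as controls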
Experimental: as §1

[8] = target: T5, systemic lupus erythematosus …; assay: AtheNA Multi-Lyte ANA, Ab at 6.25 ug/ml;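 note: monoclonal antibodies screened for reactivity against a panel of nuclear autoantigens, with an anti-HIV and an anti-RSV monoclonal antibody serving as controls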
Experimental: as §1

| EC50 [1] | AtheNA signal (centromere B (CentB) [2]) | AtheNA signal (centromere B (CentB) [3]) | AtheNA signal (ribonucleoprotein (RNP)) | AtheNA signal [4] | AtheNA signal [5] | AtheNA signal [6] | AtheNA signal (Sm (sphingomyelin)) | AtheNA signal [7] | AtheNA signal [8] | Binder |
| --- | --- | --- | --- | --- | --- | --- | --- | --- | --- | --- |
| 9.08 ng/mL | 4 | 2 | 4 | 4 | 2 | 11 | 3 | – | – | Ab7957/293i (antibody, IgG1, V domains shown, Recombinant human antibody with IgG1 heavy chain backbone and kappa light chain constant; they begin at LVESGGG and MTQSP; also called Ab7957i; mAb 7957) VH: LVESGGGVVPPGKSLRLSCAASGFTFSLYGIHWVRQAPGKGLEWVAVISYDGNTKYYTDSVKGRFTISRDNAKNTIYLQMNSLRLDDTAVYYCAKGAANSATFDFWGRGTMVTVSS VL: MTQSPDSLTLSLGERATINCRSSRTVLYRSNNKNYLAWYQHKPGQPPKLLMSWASTRETGVPDRFSGSGSGTHFTLTITSLQPEDVAVYYCQQYYSPPWTFGQGTKVEIR |
| – | 3 | 1 | – | – | – | – | – | 5 | 1 | Ab7962/293i (antibody, V domains shown, Recombinant human antibody with IgG1 heavy chain backbone and kappa light chain constant (IgM in the donor B cell); they begin at LVESGGG and MTQSL; also called clone 27; pH007962/pK005996) VH: LVESGGGLVQPGGSLRLSCAASGFTFSSYEMNWVRQAPGKGLEWVSYISSSGSTIYYADSVKGRFTISRDNAKNSLYLQMNSLRAEDTAVYYCARVEQLAPSPYMDVWGKGTTVTVSS VL: MTQSLDSLTVSLGERATINCKSSQSLLYTSNNKNYLAWYQQKSGQPPKLLIYWASIRDSGVPDRFSGSGSATDFTLTINNLQAEDVAVYFCQQYYKTPLTFGGGTKVEVR |
| 7.98 ng/mL | – | – | 8 | 3 | 3 | 8 | 5 | 12 | 7 | Ab7968 (antibody, IgG1, V domains shown, Recombinant human antibody with IgG1 heavy chain backbone and kappa light chain constant; they begin at LVESGGG and MTQSP; also called mAb 7968; mAb7968) VH: LVESGGGVVQPGRSLRLSCAASGFTFSRYGMHWVRQAPGKGLEWVAVMSYDGSTKYYADSVKGRFAISRDNPKNTLFLQMNSLRPDDTAVYYCAKGGAAAAVMDVWGKGTTVTVSS VL: MTQSPDSLTVSLGERATISCKSSQRLLYSSNNKNYLAWYQQKPGQPPKLLMYWASTRESGVPDRFSGSGSGTDFSLTISSLQAEDVAVYYCQQYYNPPWTFGQGTKVEVK |
